This is an account of results in PMC7785802, “Therapeutic Efficacy of a Trichinella Spiralis Paramyosin-Derived Peptide Modified With a Membrane-Targeting Signal in Mice With Antigen-Induced Arthritis” (Frontiers in Microbiology, 2020).

The experiment concerns the target T1, original peptide (Trichinella spiralis paramyosin-derived tetradecapeptide, …) (Trichinella spiralis).
T1 construct: also called Ts-pmy-derived peptide; original Ts-Pmy-derived peptide; source: synthetic peptide (solid-phase synthesis, GL Biochem; RP-HPLC purified up to 95%)
Put plainly: MST. The following applies: both partners purified.

T1 sequence (P02748 22-559): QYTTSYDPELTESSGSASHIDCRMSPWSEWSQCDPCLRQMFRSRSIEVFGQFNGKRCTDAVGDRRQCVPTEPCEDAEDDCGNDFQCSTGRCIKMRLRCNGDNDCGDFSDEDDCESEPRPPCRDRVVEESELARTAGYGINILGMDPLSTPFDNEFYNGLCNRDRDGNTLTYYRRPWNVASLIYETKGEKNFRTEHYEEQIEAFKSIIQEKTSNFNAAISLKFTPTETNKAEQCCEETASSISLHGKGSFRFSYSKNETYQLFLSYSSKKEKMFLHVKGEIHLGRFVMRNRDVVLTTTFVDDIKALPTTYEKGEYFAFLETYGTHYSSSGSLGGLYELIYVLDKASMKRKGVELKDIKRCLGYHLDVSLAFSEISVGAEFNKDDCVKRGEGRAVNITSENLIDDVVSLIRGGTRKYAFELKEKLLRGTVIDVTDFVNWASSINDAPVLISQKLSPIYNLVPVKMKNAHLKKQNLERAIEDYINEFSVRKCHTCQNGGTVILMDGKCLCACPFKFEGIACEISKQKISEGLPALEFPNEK

B1: human complement component C9 (natural protein)
chain: not shown
modifications: fluorescent probe NT-647 bound covalently (in the MST assay)
notes: also called human C9
Take B1: the binding result is on record as “binds”.
